Assays:
Lsm2-8 complex [1] = biological target: T1, Lsm2-8 complex (Saccharomyces cerevisiae, UniProt P38203;P57743;P40070;P40089;Q06406;P53905;P47093 …); experiment: fluorescence polarization; Hill 1.0; EMSA: 5 nM Cy3-U6, 100 mM KCl, 20% sucrose, 20 mM bis-tris/10 mM HCl, 1 mM EDTA, 1 mM TCEP, 0.01% Triton X-100, 0.1 mg/mL tRNA, 0.01 mg/mL heparin, 0.1 mg/mL BSA, room temp 20 min (gel 4 C); FP: 0.25-1 nM FAM-RNA, 100 mM NaCl, 20 mM bis-tris/10 mM HCl, 1 mM TCEP, 5% glycerol, 1 mM EDTA, yeast tRNA, BSA; conditions: protein: recombinant; tags: His on Lsm8 and GST on Lsm6, removed by TEV; copies: 1;1;1;1;1;1;1; label: 5' 6-FAM
T1 sequence 1: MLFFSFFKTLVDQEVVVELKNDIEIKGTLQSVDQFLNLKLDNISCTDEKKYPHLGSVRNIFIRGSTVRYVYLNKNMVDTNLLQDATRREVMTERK
T1 sequence 2: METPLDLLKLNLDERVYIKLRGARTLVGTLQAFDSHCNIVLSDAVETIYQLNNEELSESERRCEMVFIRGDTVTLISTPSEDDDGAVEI
T1 sequence 3: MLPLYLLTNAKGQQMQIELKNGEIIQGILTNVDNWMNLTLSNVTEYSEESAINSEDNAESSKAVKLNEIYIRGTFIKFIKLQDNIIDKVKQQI
T1 sequence 4: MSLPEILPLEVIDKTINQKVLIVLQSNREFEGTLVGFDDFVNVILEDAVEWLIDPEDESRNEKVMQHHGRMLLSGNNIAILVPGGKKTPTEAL
T1 sequence 5: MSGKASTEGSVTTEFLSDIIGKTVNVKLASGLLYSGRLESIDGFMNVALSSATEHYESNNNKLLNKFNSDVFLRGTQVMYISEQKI
T1 sequence 6: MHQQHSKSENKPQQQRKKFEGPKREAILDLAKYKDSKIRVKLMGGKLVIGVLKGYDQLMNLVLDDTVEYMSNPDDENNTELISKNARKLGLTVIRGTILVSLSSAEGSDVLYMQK
T1 sequence 7: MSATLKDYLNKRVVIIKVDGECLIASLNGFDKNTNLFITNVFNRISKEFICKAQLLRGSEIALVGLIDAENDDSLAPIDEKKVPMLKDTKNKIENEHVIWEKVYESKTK

Lsm2-8 complex [2] = biological target: T1, Lsm2-8 complex; experiment: fluorescence polarization; Hill 1.3; EMSA: 5 nM Cy3-U6, 100 mM KCl, 20% sucrose, 20 mM bis-tris/10 mM HCl, 1 mM EDTA, 1 mM TCEP, 0.01% Triton X-100, 0.1 mg/mL tRNA, 0.01 mg/mL heparin, 0.1 mg/mL BSA, room temp 20 min (gel 4 C); FP: 0.25-1 nM FAM-RNA, 100 mM NaCl, 20 mM bis-tris/10 mM HCl, 1 mM TCEP, 5% glycerol, 1 mM EDTA, yeast tRNA, BSA; conditions: protein: recombinant; tags: His on Lsm8 and GST on Lsm6, removed by TEV; copies: 1;1;1;1;1;1;1; label: 5' 6-FAM
Lhp1 (yeast La protein) [3] = biological target: T2, Lhp1 (yeast La protein) (Saccharomyces cerevisiae, UniProt P33399 1-275); experiment: fluorescence polarization; Hill 1.11; EMSA: 5 nM Cy3-U6, 100 mM KCl, 20% sucrose, 20 mM bis-tris/10 mM HCl, 1 mM EDTA, 1 mM TCEP, 0.01% Triton X-100, 0.1 mg/mL tRNA, 0.01 mg/mL heparin, 0.1 mg/mL BSA, room temp 20 min (gel 4 C); FP: 0.25-1 nM FAM-RNA, 100 mM NaCl, 20 mM bis-tris/10 mM HCl, 1 mM TCEP, 5% glycerol, 1 mM EDTA, yeast tRNA, BSA; conditions: protein: recombinant; tags: N-terminal His8-TEV; label: 5' 6-FAM
T2 sequence: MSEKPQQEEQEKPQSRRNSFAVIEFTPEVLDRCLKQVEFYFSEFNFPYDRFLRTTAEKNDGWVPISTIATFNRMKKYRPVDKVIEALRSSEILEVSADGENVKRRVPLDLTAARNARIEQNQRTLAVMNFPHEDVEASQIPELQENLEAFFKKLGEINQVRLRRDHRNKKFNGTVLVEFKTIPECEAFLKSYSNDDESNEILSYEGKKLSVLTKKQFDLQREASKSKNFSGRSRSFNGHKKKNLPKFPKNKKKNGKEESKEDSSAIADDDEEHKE

Lsm2-8 complex [4] = biological target: T1, Lsm2-8 complex; experiment: fluorescence polarization; Hill 1.6; EMSA: 5 nM Cy3-U6, 100 mM KCl, 20% sucrose, 20 mM bis-tris/10 mM HCl, 1 mM EDTA, 1 mM TCEP, 0.01% Triton X-100, 0.1 mg/mL tRNA, 0.01 mg/mL heparin, 0.1 mg/mL BSA, room temp 20 min (gel 4 C); FP: 0.25-1 nM FAM-RNA, 100 mM NaCl, 20 mM bis-tris/10 mM HCl, 1 mM TCEP, 5% glycerol, 1 mM EDTA, yeast tRNA, BSA; conditions: protein: recombinant; tags: His on Lsm8 and GST on Lsm6, removed by TEV; copies: 1;1;1;1;1;1;1; label: 5' 6-FAM
Lhp1 (yeast La protein) [5] = biological target: T2, Lhp1 (yeast La protein); experiment: fluorescence polarization; Hill 1.27; EMSA: 5 nM Cy3-U6, 100 mM KCl, 20% sucrose, 20 mM bis-tris/10 mM HCl, 1 mM EDTA, 1 mM TCEP, 0.01% Triton X-100, 0.1 mg/mL tRNA, 0.01 mg/mL heparin, 0.1 mg/mL BSA, room temp 20 min (gel 4 C); FP: 0.25-1 nM FAM-RNA, 100 mM NaCl, 20 mM bis-tris/10 mM HCl, 1 mM TCEP, 5% glycerol, 1 mM EDTA, yeast tRNA, BSA; conditions: protein: recombinant; tags: N-terminal His8-TEV; label: 5' 6-FAM

Binder: AGAGAUUUAUUUCGUUUUU (ssRNA, 3' phosphate) [U6 95-112+1U 3'P]
- Kd (Lsm2-8 complex [1]): 3 ± 1 nM

Binder: AGAGAUUUAUUUCGUUUU (ssRNA, 3' phosphate) [U6 95-112 3'P]
- Kd (Lsm2-8 complex [2]): 10 ± 1 nM

Binder: AGAGAUUUAUUUCGUUUUU (ssRNA, 2',3'-cis-diol end) [U6 95-112+1U 3'OH]
- Kd (Lsm2-8 complex [1]): 17 ± 1 nM
- Kd (Lhp1 (yeast La protein) [3]): 29 ± 1 nM

Binder: AGAGAUUUAUUUCGUUUU (ssRNA, 2',3'-cis-diol end) [U6 95-112 3'OH]
- Kd (Lsm2-8 complex [4]): 85 ± 1 nM
- Kd (Lhp1 (yeast La protein) [5]): 43 ± 1 nM
